Assays:
[1] = molecular target: PARP1 WT (UniProt P09874 1-1014); test: fluorescence polarization; without HPF1; Kd only in Fig. 6f; SPR: 25 mM HEPES pH 7.4, 250 mM NaCl, 0.1 mM TCEP, 1 mM EDTA, 0.05% Tween20 (+/- 5 uM EB47); FP: 5 nM probe, 1.56-400 nM PARP1, buffer not stated; HXMS: 10 mM HEPES pD 7.0, 150 mM NaCl, RT; settings: protein: recombinant; tags: N-terminal His6; label: internal FAM (GCTGAGC FAM-TTCTGG...); dumbbell, two hairpins, central nick
[2] = molecular target: PARP1 WT;HPF1 (human?;human, UniProt P09874;Q9NWY4 1-1014;1-346, |); test: fluorescence polarization; 20 uM HPF1; P=0.014; SPR: 25 mM HEPES pH 7.4, 250 mM NaCl, 0.1 mM TCEP, 1 mM EDTA, 0.05% Tween20 (+/- 5 uM EB47); FP: 5 nM probe, 1.56-400 nM PARP1, buffer not stated; HXMS: 10 mM HEPES pD 7.0, 150 mM NaCl, RT; settings: protein: recombinant;recombinant; tags: N-terminal His6;none (SMT sumo-like His-tag removed with ULP1); copies: 1;1; label: internal FAM (GCTGAGC FAM-TTCTGG...); dumbbell, two hairpins, central nick
[3] = molecular target: PARP1 R865A (UniProt P09874 1-1014, R865A); test: fluorescence polarization; without HPF1; P=0.000039; SPR: 25 mM HEPES pH 7.4, 250 mM NaCl, 0.1 mM TCEP, 1 mM EDTA, 0.05% Tween20 (+/- 5 uM EB47); FP: 5 nM probe, 1.56-400 nM PARP1, buffer not stated; HXMS: 10 mM HEPES pD 7.0, 150 mM NaCl, RT; settings: protein: recombinant; tags: N-terminal His6; label: internal FAM (GCTGAGC FAM-TTCTGG...); dumbbell, two hairpins, central nick
[4] = molecular target: PARP1 R865A;HPF1 (human?;human, UniProt P09874;Q9NWY4 1-1014;1-346, R865A|); test: fluorescence polarization; 20 uM HPF1; no further increase vs R865A alone (P=0.087, ns); SPR: 25 mM HEPES pH 7.4, 250 mM NaCl, 0.1 mM TCEP, 1 mM EDTA, 0.05% Tween20 (+/- 5 uM EB47); FP: 5 nM probe, 1.56-400 nM PARP1, buffer not stated; HXMS: 10 mM HEPES pD 7.0, 150 mM NaCl, RT; settings: protein: recombinant;recombinant; tags: N-terminal His6;none (SMT sumo-like His-tag removed with ULP1); copies: 1;1; label: internal FAM (GCTGAGC FAM-TTCTGG...); dumbbell, two hairpins, central nick
Chain of PARP1 R865A;HPF1 (P09874 whole entry R865A, chain 1 of 2): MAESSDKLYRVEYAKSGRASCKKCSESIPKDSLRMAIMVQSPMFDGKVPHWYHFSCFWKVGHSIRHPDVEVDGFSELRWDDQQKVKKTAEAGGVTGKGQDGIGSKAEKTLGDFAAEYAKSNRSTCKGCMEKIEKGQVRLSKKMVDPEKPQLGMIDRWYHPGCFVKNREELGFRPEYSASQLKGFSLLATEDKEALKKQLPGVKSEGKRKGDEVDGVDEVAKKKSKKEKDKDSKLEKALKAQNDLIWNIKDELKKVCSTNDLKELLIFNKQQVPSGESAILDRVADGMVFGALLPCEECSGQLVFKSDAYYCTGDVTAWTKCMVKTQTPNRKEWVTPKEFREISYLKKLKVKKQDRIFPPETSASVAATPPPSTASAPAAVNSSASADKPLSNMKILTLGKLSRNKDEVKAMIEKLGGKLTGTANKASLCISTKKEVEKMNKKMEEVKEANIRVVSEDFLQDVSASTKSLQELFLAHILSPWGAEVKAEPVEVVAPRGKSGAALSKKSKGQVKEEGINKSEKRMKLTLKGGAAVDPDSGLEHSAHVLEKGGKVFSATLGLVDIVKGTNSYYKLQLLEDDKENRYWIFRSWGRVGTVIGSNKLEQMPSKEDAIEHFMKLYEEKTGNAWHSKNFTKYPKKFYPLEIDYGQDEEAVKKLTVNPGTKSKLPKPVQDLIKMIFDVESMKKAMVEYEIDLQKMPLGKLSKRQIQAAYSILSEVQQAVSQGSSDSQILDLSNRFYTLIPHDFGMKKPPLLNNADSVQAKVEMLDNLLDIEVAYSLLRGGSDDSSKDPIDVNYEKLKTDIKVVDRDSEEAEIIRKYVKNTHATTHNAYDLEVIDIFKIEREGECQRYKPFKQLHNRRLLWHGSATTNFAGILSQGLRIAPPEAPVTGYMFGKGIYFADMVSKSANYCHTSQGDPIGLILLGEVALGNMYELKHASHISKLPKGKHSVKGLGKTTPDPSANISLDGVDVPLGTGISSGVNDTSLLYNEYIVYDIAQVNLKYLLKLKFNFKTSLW
Chain of PARP1 R865A;HPF1 (Q9NWY4 whole entry, chain 2 of 2): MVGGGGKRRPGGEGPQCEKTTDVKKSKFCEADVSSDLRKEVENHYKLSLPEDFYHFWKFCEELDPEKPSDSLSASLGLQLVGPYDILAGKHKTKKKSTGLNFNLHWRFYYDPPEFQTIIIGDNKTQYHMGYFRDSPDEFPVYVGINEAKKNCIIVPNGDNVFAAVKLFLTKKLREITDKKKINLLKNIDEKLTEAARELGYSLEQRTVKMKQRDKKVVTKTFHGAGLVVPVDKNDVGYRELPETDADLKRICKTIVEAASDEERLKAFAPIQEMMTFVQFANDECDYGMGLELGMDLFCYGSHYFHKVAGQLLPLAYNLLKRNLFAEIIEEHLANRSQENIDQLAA

Chain of PARP1 R865A (P09874 whole entry R865A): as the sequence (P09874 whole entry R865A, chain 1 of 2) above
Chain of PARP1 WT (P09874 whole entry): as the sequence (P09874 whole entry R865A, chain 1 of 2) above, with A865R counted along it
Chain of PARP1 WT;HPF1 (P09874 whole entry, chain 1 of 2): as the sequence (P09874 whole entry R865A, chain 1 of 2) above, with A865R counted along it
Chain of PARP1 WT;HPF1 (Q9NWY4 whole entry, chain 2 of 2): as the sequence (Q9NWY4 whole entry, chain 2 of 2) above

B1: FAM dumbbell with central nick (FP) (structured_DNA)
DNA: GCTGAGCTTCTGGTGAAGCTCAGCTCGCGGCAGCTGGTGCTGCCGCGA
[1]
  binding result: binds
[2]
  binding signal: ~2 fold higher affinity than PARP1 WT alone
[3]
  binding signal: 4 fold higher affinity than PARP1 WT
[4]
  binding result: binds

Source: publication PMC8602370, “HPF1 dynamically controls the PARP1/2 balance between initiating and elongating ADP-ribose modifications”
